In FireProtDB:
Where “and” joins values, the source holds several entries; their conditions need not be identical. Equal entries are not always repeated.

Settings: whole UniProt chain shown
[1] = Saccharolobus solfataricus (strain ATCC 35092 / DSM 1617 / JCM 11322 / P2), pH 5.5, Thermal, CD, Acetate 50 mM
[2] = Staphylococcus aureus (strain NCTC 8325 / PS 47), pH 8.5, Urea, fluorescence, Tris-Cl, transition: 2, reversible: yes
[3] = Salmonella phage P22, pH 7.3, Thermal, CD, Potassium phosphate 10 mM, KCl 100 mM, reversible: yes
[4] = Salmonella phage P22, pH 7.5, 20 °C, GdnHCl, CD, Tris-HCl 50 mM, KCl 100 mM, reversible: yes
[5] = Salmonella phage P22, pH 7.5, 20 °C, GdnHCl, Fluorescence, Tris-HCl 50 mM, KCl 100 M, reversible: yes
[6] = Salmonella phage P22, pH 7.5, 20 °C, Urea, Fluorescence, Tris-HCl 50 mM, KCl 100 mM, reversible: yes
[7] = Salmonella phage P22, pH 7.5, 25 °C, GdnHCl, CD, Tris-HCl 50 mM, KCl 250 mM
[8] = Salmonella phage P22, pH 7.5, 25 °C, GdnHCl, Fluorescence, Tris-HCl 50 mM, KCl 100 M, reversible: yes
[9] = Salmonella phage P22, pH 7.5, 25 °C, Urea, CD, Tris 50 mM, KCl 50 mM
[10] = Salmonella phage P22, pH 7.5, 25 °C, Urea, CD, Tris-Cl 10 mM, KCl 250 mM
[11] = Salmonella phage P22, pH 7.5, 25 °C, Urea, CD, Tris-HCl 50 mM, KCl 250 mM, reversible: yes
[12] = Salmonella phage P22, pH 7.5, Thermal, CD, Tris-HCl 50 mM, KCl 250 mM, reversible: yes
[13] = Salmonella phage P22, pH 7.5, Thermal, CD, Tris-HCl 50 mM, KCl 100 M, reversible: yes

B1: Cytochrome c2 wild type, P00094 (protein)
chain: MKISLTAATVAALVLAAPAFAGDAAKGEKEFNKCKTCHSIIAPDGTEIVKGAKTGPNLYGVVGRTAGTYPEFKYKDSIVALGASGFAWTEEDIATYVKDPGAFLKEKLDDKKAKTGMAFKLAKGGEDVAAYLASVVK
For B1, the “denaturant midpoint (higher = more stable)” value (shortened to “denaturant midpoint”) (Rhodobacter capsulatus (strain ATCC BAA-309 / NBRC 16581 / SB1003), pH 7.5, 30 °C, GdnHCl, CD, Tris 20 mM) was 1.54 M.

B2: Methylated-DNA--protein-cysteine methyltransferase wild type, Q97VW7 (protein)
chain: MLVYGLYKSPLGYITVAKDDKGFIMLDFCDCVEGNSRDDSSFTEFFHKLDLYFEGKPINLREPINLKTYPFRLSVFKEVMKIPWGKVMTYKQIADSLGTSPRAVGMALSKNPILLIIPCHRVIAENGIGGYSRGVKLKRALLELEGVKIPE
B2 showed a Tm (Saccharolobus solfataricus (strain ATCC 35092 / DSM 1617 / JCM 11322 / P2), pH 7.4, Thermal, DSF, PBS, transition: 2) of 82.9 °C.

B3: Scaffolding protein wild type, P26748 (protein)
chain: MEPTTEIQATEDLTLSGDHAAASADSLVVDNANDNAGQEEGFEIVLKDDETAPKQDPAKNAEFARRRIERKRQRELEQQMEAVKRGELPESLRVNPDLPPQPDINAYLSEEGLAKYDYDNSRALAAFNAANTEWLMKAQDARSNAVAEQGRKTQEFTQQSAQYVEAARKHYDAAEKLNIPDYQEKEDAFMQLVPPAVGADIMRLFPEKSAALMYHLGANPEKARQLLAMDGQSALIELTRLSERLTLKPRGKQISSAPPADQPITGDVSAANKDAIRKQMDAAASKGDVETYRKLKAKLKGIR
With B3 the Tm (Salmonella phage P22, pH 7.6, Thermal, Fluorescence, phosphate 0.3 micro M, NaCl 0.3 micro M) was 58 °C.

B4: Acylphosphatase wild type, Q97ZL0 (protein)
chain: MKKWSDTEVFEMLKRMYARVYGLVQGVGFRKFVQIHAIRLGIKGYAKNLPDGSVEVVAEGYEEALSKLLERIKQGPPAAEVEKVDYSFSEYKGEFEDFETY
Work on B4 yielded an unfolding free energy (Saccharolobus solfataricus (strain ATCC 35092 / DSM 1617 / JCM 11322 / P2), pH 5.5, 28 °C, GdnHCl, CD, Acetate 50 mM) of 11.6 kcal/mol, an unfolding free energy (Saccharolobus solfataricus (strain ATCC 35092 / DSM 1617 / JCM 11322 / P2), pH 5.5, 81 °C, GdnHCl, CD, Acetate 50 mM) of 4.94 kcal/mol and a Tm [1] of 101 °C. For the same protein, the “heat capacity change of unfolding” value [1] was 1.15 kcal/mol/K and the “unfolding enthalpy (van 't Hoff)” value [1] was 105 kcal/mol.

B5: Gastrotropin wild type, P80020 (protein)
chain: MAFTGKYEFESEKNYDEFMKRLGLPDEVIERGRNFKIITEVQQDGENFTWSQSYSGGNIMSNKFTIGKECEMQTMGGKKFKATVKMEGGKVVADFPNYHQTSEVVGDKLVEISTIGDVTYERVSKRVA
With B5 the unfolding free energy (Rattus norvegicus, pH 8, 25 °C, Urea, CD, NaH2PO4 25 mM/, NaCl 75 mM, reversible: Yes) was 4.39 kcal/mol and the unfolding free energy (Rattus norvegicus, pH 8, 25 °C, Urea, Fluorescence, NaH2PO4 25 mM/, NaCl 75 mM, reversible: Yes) was 4.71 kcal/mol.

B6: Parvalbumin alpha wild type, P02625 (protein)
chain: MSMTDLLSAEDIKKAIGAFTAADSFDHKKFFQMVGLKKKSADDVKKVFHILDKDKSGFIEEDELGSILKGFSSDARDLSAKETKTLMAAGDKDGDGKIGVEEFSTLVAES
Work on B6 yielded an unfolding free energy (Rattus norvegicus, pH 7.74, 30 °C, Thermal, CD, piperazine 10 mM, KCl 200 mM) of 0.7 kcal/mol and a Tm (Rattus norvegicus, pH 7.74, Thermal, CD, piperazine 10 mM, KCl 200 mM) of 35 °C.

B7: Putative peptidyl-prolyl cis-trans isomerase wild type, Q2FZU9 (protein)
chain: MANYPQLNKEVQQGEIKVVMHTNKGDMTFKLFPNIAPKTVENFVTHAKNGYYDGITFHRVINDFMIQGGDPTATGMGGESIYGGAFEDEFSLNAFNLYGALSMANSGPNTNGSQFFIVQMKEVPQNMLSQLADGGWPQPIVDAYGEKGGTPWLDQKHTVFGQIIDGETTLEDIANTKVGPQDKPLHDVVIESIDVEE
In the case of B7, the denaturant m value [2] is reported as 0.85 kcal/mol/M and 1.18 kcal/mol/M, the “denaturant midpoint” value [2] is reported as 3.19 M and 1.83 M and the unfolding free energy [2] is reported as 2.66 kcal/mol and 2.17 kcal/mol.

B8: Transcriptional repressor arc wild type, P03050 (protein)
chain: MKGMSKMPQFNLRWPREVLDLVRKVAEENGRSVNSEIYQRVMESFKKEGRIGA
In the case of B8, the Tm [3] is reported as 54 °C, the “heat capacity change of unfolding” value [3] is reported as 1.6 kcal/mol/K and the “unfolding enthalpy (van 't Hoff)” value [3] is reported as 71 kcal/mol. The unfolding free energy [3] was 7.3 kcal/mol, the denaturant m value [4] was 3.27 kcal/mol/M and the unfolding free energy [4] was 11.1 kcal/mol. It also gave a denaturant m value [5] of 2.98 kcal/mol/M, an unfolding free energy [5] of 9.97 kcal/mol and a denaturant m value [6] of 1.37 kcal/mol/M. The “denaturant midpoint” value [6] was 6.7 M, the unfolding free energy [6] was 9.58 kcal/mol and the denaturant m value [7] was 3 kcal/mol/M. For the same protein, the “denaturant midpoint” value [7] was 1.1 M, the unfolding free energy [7] was 10.3 kcal/mol and the denaturant m value [8] was 3.03 kcal/mol/M. It also gave an unfolding free energy [8] of 10.1 kcal/mol, a Tm (Salmonella phage P22, pH 7.5, 25 °C, Thermal, CD, Tris-HCl 50 mM, KCl 50 mM) of 56.8 °C and an unfolding free energy (Salmonella phage P22, pH 7.5, 25 °C, Thermal, CD, Tris-HCl 50 mM, KCl 250 mM) of 11 kcal/mol. It also gave a denaturant m value [9] of 1.5 kcal/mol/M, an unfolding free energy [9] of 10.4 kcal/mol and a denaturant m value [10] of 1.21 kcal/mol/M. For the same protein, the unfolding free energy [10] was 9.92 kcal/mol, the denaturant m value [11] was 1.36 kcal/mol/M and 1.57 kcal/mol/M and 1.64 kcal/mol/M and the “denaturant midpoint” value [11] was 4.65 M. For the same protein, the unfolding free energy [11] was 6.3 kcal/mol and 10.9 kcal/mol and 11 kcal/mol, the Tm (Salmonella phage P22, pH 7.5, Thermal, CD, Potassium phosphate 10 mM, KCl 100 mM) was 54 °C and the Tm (Salmonella phage P22, pH 7.5, Thermal, CD, Tris-HCl 50 mM, KCl 50 mM) was 56.8 °C. The Tm [12] was 58.3 °C and 59 °C and 57.9 °C, the “unfolding enthalpy (van 't Hoff)” value [12] was 62.3 kcal/mol and 58.5 kcal/mol and the Tm [13] was 53.4 °C. The “unfolding enthalpy (van 't Hoff)” value [13] was 55.2 kcal/mol.

B9: Cytidine deaminase wild type, Q9S3M0 (protein)
chain: MDVEKLIAESKKAREQAYVPYSKFPVGAALLAEDGTIYHGCNIENSAYSMTNCAERTAFFKAVSDGVRSFKALAVVADTEGPVSPCGACRQVIAEFCNGSMPVYLTNLKGDIEETTVAKLLPGAFSKEDLSYAAEQ
B9 showed an unfolding free energy (Sporosarcina psychrophila, pH 7, 25 °C, GdnHCl, CD, potassium phosphate 20 mM, reversible: no) of 3 kcal/mol.
